Test results taken from the supplement of paper PMC10567573.

B1: STK38L (parent)
chain: NWKETLVFPPEVPISEKAKDLILR

Variants of: B1
Assay: protein stability index of a GFP-peptide fusion (GPS, HEK-293T) (PSI 1-6); higher = more stable
Conditions: c terminus: a fixed tail appended
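Also: lentivirally expressed fusions sorted by FACS into six bins by GFP to DsRed ratio, PSI derived from sequencing read proportions per bin multiplied by bin number.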

| Variant | protein stability index |
| --- | --- |
| NWKETLVFPPEVPISERAKDLILR [K17R] | 2.8 |
| NWKETLVFPPEVPISEWAKDLILR [K17W] | 2.41 |
| NWKETLVFPPEVPISEEAKDLILR [K17E] | 3.32 |
| NWKETLVFPPEVPISEYAKDLILR [K17Y] | 3.14 |
| NWKETLVFPPEVPISENAKDLILR [K17N] | 3.37 |
| NWKETLVFPPEVPISELAKDLILR [K17L] | 2.15 |
| NWKETLVFPPEVPISECAKDLILR [K17C] | 2.81 |
| NWKETLVFPPEVPISEFAKDLILR [K17F] | 2.93 |
| NWKETLVFPPEVPISEGAKDLILR [K17G] | 2.8 |
| NWKSTLVFPPEVPISEKAKDLILR [E4S] | 2.32 |
| NWKNTLVFPPEVPISEKAKDLILR [E4N] | 1.76 |
| NWKHTLVFPPEVPISEKAKDLILR [E4H] | 2.82 |
| NWKITLVFPPEVPISEKAKDLILR [E4I] | 1.69 |
| NWKCTLVFPPEVPISEKAKDLILR [E4C] | 2.16 |
| NWKVTLVFPPEVPISEKAKDLILR [E4V] | 2.38 |
| NWKKTLVFPPEVPISEKAKDLILR [E4K] | 2.47 |
| NWKETLVFPPEVPISFKAKDLILR [E16F] | 2.04 |
| NWKETLVFPPEVPISNKAKDLILR [E16N] | 3.3 |
| NWKETLVFPPEVPISMKAKDLILR [E16M] | 1.66 |
| NWKETLVFPPEVPISHKAKDLILR [E16H] | 2.34 |
| NWKETLVFPPEVPISRKAKDLILR [E16R] | 2.48 |
| NWKETLVFPPEVPISVKAKDLILR [E16V] | 3.14 |
| NWKETLVFPPEVPISKKAKDLILR [E16K] | 2.17 |
| NWKETLVFPPEVPISAKAKDLILR [E16A] | 2.66 |

| Variant | protein stability index |
| --- | --- |
| NWKETLAFPPEVPISEKAKDLILR [V7A] | 3.52 |
| NWKETLDFPPEVPISEKAKDLILR [V7D] | 3.81 |
| NWKETLMFPPEVPISEKAKDLILR [V7M] | 2.94 |
| NWKETLLFPPEVPISEKAKDLILR [V7L] | 3.65 |
| NWKETLTFPPEVPISEKAKDLILR [V7T] | 3.33 |
| NWKETLHFPPEVPISEKAKDLILR [V7H] | 3.27 |
| NWKETLQFPPEVPISEKAKDLILR [V7Q] | 3.95 |
| NWKETGVFPPEVPISEKAKDLILR [L6G] | 1.5 |
| NWKETTVFPPEVPISEKAKDLILR [L6T] | 3.46 |
| NWKETFVFPPEVPISEKAKDLILR [L6F] | 3.31 |
| NWKETWVFPPEVPISEKAKDLILR [L6W] | 2.74 |
| NWKETNVFPPEVPISEKAKDLILR [L6N] | 3.55 |
| NWKETIVFPPEVPISEKAKDLILR [L6I] | 2.86 |
| NWKETPVFPPEVPISEKAKDLILR [L6P] | 4.16 |
| NWKETDVFPPEVPISEKAKDLILR [L6D] | 3.93 |
| NWKETCVFPPEVPISEKAKDLILR [L6C] | 3 |
| NWKETEVFPPEVPISEKAKDLILR [L6E] | 3.66 |
| NWKETAVFPPEVPISEKAKDLILR [L6A] | 4.04 |
| NWKETYVFPPEVPISEKAKDLILR [L6Y] | 3.39 |
| NWKETLVFPPEVPISEKAKDLILT [R24T] | 3.59 |
| NWKETLVFPPEVPISEKAKDLILQ [R24Q] | 2.83 |
| NWKETLVFPPEVPISEKAKDLILK [R24K] | 3.6 |
| NWKETLVFPPEVPISEKAKDLILC [R24C] | 2.16 |
| NWKETLVFPPEVPISEKAKDLILA [R24A] | 3.09 |

| Variant | protein stability index |
| --- | --- |
| NWKETLVFPPEVPISEKAKDLILM [R24M] | 2.64 |
| NWKETLVFPPEVPISEKAKDLILF [R24F] | 2.13 |
| NWKETLVFPPEVPISEKDKDLILR [A18D] | 3.76 |
| NWKETLVFPPEVPISEKEKDLILR [A18E] | 4.56 |
| NWKETLVFPPEVPISEKYKDLILR [A18Y] | 2.45 |
| NWKETLVFPPEVPISEKGKDLILR [A18G] | 3.21 |
| NWKETLVFPPEVPISEKQKDLILR [A18Q] | 3.57 |
| NWKETLVFPPEVPISEKRKDLILR [A18R] | 3.69 |
| NWKETLVFPPEVPISEKCKDLILR [A18C] | 2.72 |
| SWKETLVFPPEVPISEKAKDLILR [N1S] | 4.02 |
| AWKETLVFPPEVPISEKAKDLILR [N1A] | 2.16 |
| IWKETLVFPPEVPISEKAKDLILR [N1I] | 2.18 |
| MWKETLVFPPEVPISEKAKDLILR [N1M] | 1.98 |
| NWKETLVFPPEVSISEKAKDLILR [P13S] | 3.92 |
| NWKETLVFPPEVNISEKAKDLILR [P13N] | 3.27 |
| NWKETLVFPPEVDISEKAKDLILR [P13D] | 3.4 |
| NWKETLVFPPEVEISEKAKDLILR [P13E] | 3.1 |
| NWKETLVFPPEVLISEKAKDLILR [P13L] | 2.42 |
| NWKETLVFPPEVFISEKAKDLILR [P13F] | 2.35 |
| NWKETLVFPPEVRISEKAKDLILR [P13R] | 2.57 |
| NWKETLVFPPEVHISEKAKDLILR [P13H] | 2.9 |
| NWKETLVFPPEVPISEKAKDLCLR [I22C] | 3.07 |
| NWKETLVFPPEVPISEKAKDLQLR [I22Q] | 3.88 |
| NWKETLVFPPEVPISEKAKDLALR [I22A] | 4.17 |

| Variant | protein stability index |
| --- | --- |
| NWKETLVFPPEVPISEKAKDLSLR [I22S] | 3.89 |
| NWKETLVFPPEVPISEKAKDLYLR [I22Y] | 3.51 |
| NWKETLVFPPEVPISEKAKDLNLR [I22N] | 3.62 |
| NWKETLVFPPEVPISEKAKDLMLR [I22M] | 4.15 |
| NWKETLVFPPEVPISEKAKDLPLR [I22P] | 4.36 |
| NWKETLVFPPEVPISEKAKDLHLR [I22H] | 3.68 |
| NWKETLVFPPEVPISEKAKDLDLR [I22D] | 4.43 |
| NWKETLVFPPEVPISEKAKDLLLR [I22L] | 3.21 |
| NWKETLVFPPEVPISEKAKDLKLR [I22K] | 3.66 |
| NWKETLVFPPEVPISEKAKYLILR [D20Y] | 1.8 |
| NWKETLVFPPEVPISEKAKQLILR [D20Q] | 3 |
| NWKETLVFPPEVPISEKAKPLILR [D20P] | 2.65 |
| NWKETLVFPPEVPISEKAKGLILR [D20G] | 2.31 |
| NWKETLVFPPEVPISEKAKFLILR [D20F] | 2.52 |
| NWKETLVFPPEVPISEKAKCLILR [D20C] | 2.06 |
| NWKETLVFPPEVPISEKAKSLILR [D20S] | 2.45 |
| NMKETLVFPPEVPISEKAKDLILR [W2M] | 3.54 |
| NNKETLVFPPEVPISEKAKDLILR [W2N] | 4.14 |
| NIKETLVFPPEVPISEKAKDLILR [W2I] | 3.32 |
| NTKETLVFPPEVPISEKAKDLILR [W2T] | 4.64 |
| NDKETLVFPPEVPISEKAKDLILR [W2D] | 3.68 |
| NVKETLVFPPEVPISEKAKDLILR [W2V] | 3.59 |
